Results reported in patent publication US20250264455A1 (HELMHOLTZ ZENTRUM M NCHEN DEUTSCHES FORSCHUNGSZENTRUM F R …, published 2025).

Tests used:
[1] = target: the molecule itself; assay: native 12% Tris-Glycine gel of purified protein with BODIPY FL C16
LifeAct-emFPv4 = target: T1, LifeAct-emFPv4; assay: Clear Native PAGE of co-expressing HEK293T lysate
T1 construct: also called emFPv4 hub

QtEnc-SpyTag(003) [2] = target: T2, QtEnc-SpyTag(003) (Bacillus thermotolerans (Quasibacillus …, UniProt A0A0F5HPP7 1-282)); assay: TEM and CN-PAGE after co-expression in HEK cells (SpyTag003/SpyCatcher003 isopeptide)
T2 construct: Q. thermotolerans encapsulin shell monomer with C-terminal SpyTag003; T=4 shell of 240 subunits; expressed in HEK cells; also called QtEnc decorated with SpyTags

QtEnc-SpyTag(003) [3] = target: T2, QtEnc-SpyTag(003); assay: TEM, CN-PAGE shift and Western blot after co-expression in HEK cells (SpyTag003/SpyCatcher003 isopeptide)

B1: BFabp-FLAG (other)
chain: VEAFCATWKLTNSQNFDEYMKALGVGFATRQVGNVTKPTVIISQEGDKVVIRTLSTFKNTEISFQLGEEFDETTADDRNCKSVVSLDGDKLVHIQKWDGKETNFVREIKDGKMVMTLTFGDVVAVRHYEKAGSGDYKDDDDK
notes: Purified over the FLAG tag
[1]
  binding result: binds

B2: BFabp-αMoon-Tag (other)
chain: MEVQLVESGGGLVQPGGSLRLSCAASGSISSVDVMSWYRQAPGKQRELVAFITDRGRTNYKVSVKGRFTISRDNSKNMVYLQMNSLKPEDTADYLCRAESRTSWSSPSPLDVWGRGTQVTVSSGGTGGSVEAFCATWKLTNSQNFDEYMKALGVGFATRQVGNVTKPTVIISQEGDKVVIRTLSTFKNTEISFQLGEEFDETTADDRNCKSVVSLDGDKLVHIQKWDGKETNFVREIKDGKMVMTLTFGDVVAVRHYEKA
notes: also called B-Fabp Anti-Moon-Tag
LifeAct-emFPv4
  binding result: binds

B3: BM3h-SpyCatcher003 (other)
chain: MTIKEMPQPKTFGELKNLPLLNTDKPVQALMKIADELGEIFKFEAPGRVTRYLSSQRLIKEACDESRFDKNLSQALKFVRDFAGDGLFTSWTHEKNWKKAHNILLPSFSQQAMKGYHAMMVDIAVQLVQKWERLNADEHIEVPEDMTRLTLDTIGLCGFNYRFNSFYRDQPHPFITSMVRALDEAMNKLQRANPDDPAYDENKRQFQEDIKVMNDLVDKIIADRKASGEQSDDLLTHMLNGKDPETGEPLDDENIRYQIITFLIAGHETTSGLLSFALYFLVKNPHVLQKAAEEAARVLVDPVPSYKQVKQLKYVGMVLNEALRLWPTAPAFSLYAKEDTVLGGEYPLEKGDELMVLIPQLHRDKTIWGDDVEEFRPERFENPSAIPQHAFKPFGNGQRACIGQQFALHEATLVLGMMLKHFDFEDHTNYELDIKETLTLKPEGFVVKAKSKKIPLPPPPRTGPPPPRVTTLSGLSGEQGPSGDMTTEEDSATHIKFSKRDEDGRELAGATMELRDSSGKTISTWISDGHVKDFYLYPGKYTFVETAAPDGYEVATPIEFTVNEDGQVTVDGEATEGDAHT
notes: Heme domain of cytochrome P450 BM3 fused to SpyCatcher003; also called SpyCatcher-Bm3h
QtEnc-SpyTag(003) [2]
  binding result: binds

B4: B-FABP-SpyCatcher003 (other)
chain: MVEAFCATWKLTNSQNFDEYMKALGVGFATRQVGNVTKPTVIISQEGDKVVIRTLSTFKNTEISFQLGEEFDETTADDRNCKSVVSLDGDKLVHIQKWDGKETNFVREIKDGKMVMTLTFGDVVAVRHYEKAPPPPRTGPPPPRVTTLSGLSGEQGPSGDMTTEEDSATHIKFSKRDEDGRELAGATMELRDSSGKTISTWISDGHVKDFYLYPGKYTFVETAAPDGYEVATPIEFTVNEDGQVTVDGEATEGDAHT
notes: also called B-FABP fused via SpyCatcher003
QtEnc-SpyTag(003) [3]
  binding result: binds
